This test deals with T1, complement factor H, homozygous Tyr-402/Val-62 allotype (human), P08603.
T1 chain: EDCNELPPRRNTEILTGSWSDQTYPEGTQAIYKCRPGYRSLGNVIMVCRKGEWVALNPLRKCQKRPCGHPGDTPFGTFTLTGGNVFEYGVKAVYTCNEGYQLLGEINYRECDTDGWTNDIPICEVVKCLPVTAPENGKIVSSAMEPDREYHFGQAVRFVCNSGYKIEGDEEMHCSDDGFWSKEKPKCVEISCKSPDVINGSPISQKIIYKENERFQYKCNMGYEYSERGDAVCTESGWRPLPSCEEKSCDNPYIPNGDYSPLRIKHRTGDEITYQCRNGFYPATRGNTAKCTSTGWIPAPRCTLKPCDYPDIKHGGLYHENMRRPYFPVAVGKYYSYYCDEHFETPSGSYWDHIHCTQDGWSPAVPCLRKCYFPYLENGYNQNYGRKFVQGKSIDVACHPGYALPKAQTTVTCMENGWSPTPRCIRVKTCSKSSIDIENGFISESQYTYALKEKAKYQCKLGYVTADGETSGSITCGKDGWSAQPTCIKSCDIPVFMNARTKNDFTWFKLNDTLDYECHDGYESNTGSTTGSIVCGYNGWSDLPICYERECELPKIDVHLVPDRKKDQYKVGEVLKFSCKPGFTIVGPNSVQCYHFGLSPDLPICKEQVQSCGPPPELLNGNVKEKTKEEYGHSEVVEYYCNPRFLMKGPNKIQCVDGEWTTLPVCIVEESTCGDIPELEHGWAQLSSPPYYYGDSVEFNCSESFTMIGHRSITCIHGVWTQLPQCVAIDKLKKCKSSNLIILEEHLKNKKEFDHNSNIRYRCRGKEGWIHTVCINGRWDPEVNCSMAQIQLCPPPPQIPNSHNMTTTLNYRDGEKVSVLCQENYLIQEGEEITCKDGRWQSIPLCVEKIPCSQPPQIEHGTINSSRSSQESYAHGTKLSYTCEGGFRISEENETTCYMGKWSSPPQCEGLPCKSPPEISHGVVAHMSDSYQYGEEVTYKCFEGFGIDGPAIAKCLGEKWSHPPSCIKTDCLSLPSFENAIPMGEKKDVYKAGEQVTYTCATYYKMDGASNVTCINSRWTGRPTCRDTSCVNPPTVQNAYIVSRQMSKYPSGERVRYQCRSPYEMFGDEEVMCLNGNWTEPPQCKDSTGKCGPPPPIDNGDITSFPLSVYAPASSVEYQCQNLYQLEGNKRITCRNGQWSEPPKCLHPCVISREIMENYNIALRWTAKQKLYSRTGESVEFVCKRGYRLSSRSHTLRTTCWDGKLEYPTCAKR
In words: SPR. Conditions: natural protein, eight biantennary disialylated N-glycans, sites as printed: Asn-511, Asn-700, Asn-784, Asn-804, Asn-864, Asn-892, Asn-1011, Asn-1077, remark: other sources report otherwise.

A value given as a limit tells only on which side of the number the result lay.

B1: complement factor H, homozygous Tyr-402/Val-62 allotype, P08603 19-1231 (protein)
chain: T1 chain
In the case of B1, the dissociation constant (Kd) (usually the concentration at which binding is half-saturated) is greater than 40 µM.
